Laboratory results taken from patent US20210238276A1 (INTEGRAL MOLECULAR, published 2021).
Substitutions are numbered along the chain they refer to.

How the values were obtained:
Assay in all cases: flow cytometry, alanine-scan library in HEK-293T, with cytochalasin B
hsGLUT4 P66A = biological target: T1, hsGLUT4 P66A (human, UniProt P14672 1-509)
T1 sequence: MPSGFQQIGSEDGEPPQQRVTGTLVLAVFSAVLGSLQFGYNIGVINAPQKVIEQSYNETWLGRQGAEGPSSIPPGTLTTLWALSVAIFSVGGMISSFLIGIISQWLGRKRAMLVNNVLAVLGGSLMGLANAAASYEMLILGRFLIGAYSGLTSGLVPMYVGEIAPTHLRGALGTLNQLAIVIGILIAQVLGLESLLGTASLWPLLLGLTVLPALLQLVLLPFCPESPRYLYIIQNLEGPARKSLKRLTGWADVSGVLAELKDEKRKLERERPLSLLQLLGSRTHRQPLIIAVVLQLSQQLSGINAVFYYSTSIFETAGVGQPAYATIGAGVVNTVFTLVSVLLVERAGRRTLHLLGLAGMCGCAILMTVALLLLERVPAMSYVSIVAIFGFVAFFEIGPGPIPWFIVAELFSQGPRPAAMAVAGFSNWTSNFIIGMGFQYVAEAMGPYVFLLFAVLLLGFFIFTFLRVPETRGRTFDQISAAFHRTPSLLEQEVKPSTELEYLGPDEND
Procedure, shortened: (§1)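 HEK-293T cells expressing individual GLUT4 alanine mutants were stained 48 h post-transfection with anti-GLUT4 scFv MAbs (2 μg/ml), then biotinylated secondary and streptavidin-PerCP, and read by high-throughput flow cytometry. Where used, cytochalasin B (10 uM final) was given for 30 min before and during primary antibody staining.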

hsGLUT4 L155A = biological target: T2, hsGLUT4 L155A (human, UniProt P14672 1-509)
T2 sequence: T1 sequence with A66P, L155A
Procedure, shortened: as §1

hsGLUT4 G414A = biological target: T3, hsGLUT4 G414A (human, UniProt P14672 1-509)
T3 sequence: T1 sequence with A66P, G414A
Procedure, shortened: as §1

hsGLUT4 Y309A = biological target: T4, hsGLUT4 Y309A (human, UniProt P14672 1-509)
T4 sequence: T1 sequence with A66P, Y309A
Procedure, shortened: as §1

% of binding to wild type GLUT4 (hsGLUT4 P66A): 97%
% of binding to wild type GLUT4 (hsGLUT4 L155A): 26%
% of binding to wild type GLUT4 (hsGLUT4 G414A): 23%
% of binding to wild type GLUT4 (hsGLUT4 Y309A): 24%
B1: AB102 (Fc fusion)
scFv: ALTQPSSVSANLGGTVKITCSGGGSYGYGWYQQKSPGSAPVTVIYSNDQRPSDIPSRFSGSKSGSTATLTITGVRAEDEAIYYCGSTDSDYVGIFGAGTTLTVLGQSSRSSGGGGSSGGGGSAVTLDESGGGLQTPGGTLSLVCKASGFDFSSYATIWVRQAPGKGLEWVAGISGTGTGSSTGYAPAVKGRATISRDNGQSTVRLQLNNLRAEDTGSYFCAKSTGYGDSWIYPDSIDAWGHGTEVIVSS
notes: also called MAb AB102; not shown: Fc fragment of human IgG1, cloned in frame with the scFv
